# From article PMC3880865 (Nature structural & molecular biology, 2012)
# Numbering of substitutions follows the chain as printed. In names and notes the source's numbering stands.
# B1: GST-CBL47–435 M222F (domain or fragment)
# chain: PPGTVDKKMVEKCWKLMDKVVRLCQNPKLALKNSPPYILDLLPDTYQHLRTILSRYEGKMETLGENEYFRVFMENLMKKTKQTISLFKEGKERMYEENSQPRRNLTKLSLIFSHMLAELKGIFPSGLFQGDTFRITKADAAEFWRKAFGEKTIVPWKSFRQALHEVHPISSGLEAFALKSTIDLTCNDYISVFEFDIFTRLFQPWSSLLRNWNSLAVTHPGYMAFLTYDEVKARLQKFIHKPGSYIFRLSCTRLGQWAIGYVTADGNILQTIPHNKPLFQALIDGFREGFYLFPDGRNQNPDLTGLCEPTPQDHIKVTQEQYELYCEMGSTFQLCKICAENDKDVKIEPCGHLMCTSCLTSWQESEGQGCPFCRCEIKGTEPIVVDPFD
# B2: GST-CBL47–435 Y368F pY371 V431A (domain or fragment)
# chain: B1 chain with F176M, Y322F, V385A
# modifications: phosphotyrosine at 371
# B3: GST-CBL354–435 Y368F pY371 (domain or fragment)
# chain: EPTPQDHIKVTQEQFELYCEMGSTFQLCKICAENDKDVKIEPCGHLMCTSCLTSWQESEGQGCPFCRCEIKGTEPIVVDPFD
# modifications: phosphotyrosine at 371
# B4: GST-CBL354–435 WT (domain or fragment)
# chain: B3 chain with F15Y
# B5: GST-CBL354–435 Y368F (domain or fragment)
# chain: B3 chain
# B6: GST-CBL47–435 Y368F pY371 K389A (domain or fragment)
# chain: B1 chain with F176M, Y322F, K343A
# modifications: phosphotyrosine at 371
# B7: GST-CBL354–435 pY371 (domain or fragment)
# chain: B3 chain with F15Y
# modifications: phosphotyrosine at 371
# B8: GST-CBL354–435 Y371F (domain or fragment)
# chain: B3 chain with F15Y, Y18F
# Biological target: UbcH5B (UniProt P62837 1-147)
# Experiment: SPR
row,Binder,Kd [µM]
1,B1,320
2,B2,43
3,B3,18
4,B4,42
5,B5,38
6,B6,81
7,B7,20
8,B8,50
